Experimental data published in article PMC11927390 (Cancer Research Communications, 2025).

B1: 23ME-01473, humanized Fc effector-enhanced (afucosylated) anti-ULBP6/2/5 antibody (antibody, V domains shown)
VH: EVQLVESGGGLVQPGGSLRLSCAASGFTFSTYGFHWVRQAPGKGLEWVAYISSNSGTIDYADTVKGRFTISRDNAKNSLYLQMNSLRAEDTAVYYCARQGYGFDNWGQGTTVTVSS
VL: DIQLTQSPSSLSASVGDRVTITCSASSRVSYMNWYQQKPGKSPKIWVYGISNLASGVPSRFSGSGSGTDFTFTISSLQPEDIATYYCQQRSSHPLTFGGGTKVEIK
notes: variable domain as in the heavy chain of the Fab m2; human IgG1 heavy constant region; as the light chain of m2; Humanized by CDR grafting from a mouse hybridoma clone; also called Fc-enhanced anti-ULBP6/2/5 antibody; source: CHO FUT8-KO, transfected, purified (Protein A, SEC Superdex 200)
B2: Fc-tagged human NKG2D (Fc fusion, UniProt P26718 73-216, looked up)
chain: IWSAVFLNSLFNQEVQIPLTESYCGPCPKNWICYKNNCYQFFDESKNWYESQASCMSQNASLLKVYSKEDQDLLKLVKSYHWMGLVHIPTNGSWQWEDGSILSPNLLTIIEMQKGDCALYASSFKGYIENCSTPNTYICMQRTV
notes: NK group 2D receptor (NKG2D), human; also called Fc-tagged NKG2D

What was measured:
Details in all cases: both partners purified
human ULBP5 = human ULBP5 (Homo sapiens (Human)., UniProt Q6H3X3); assay: SPR; 23ME-01473 and human ULBPs, as described for NKG2D (Biacore, 37°C, Protein A chip, HBS-P, ligands injected); one-to-one Langmuir model, KD = kd/ka
Sequence of human ULBP5 (Q6H3X3 26-218): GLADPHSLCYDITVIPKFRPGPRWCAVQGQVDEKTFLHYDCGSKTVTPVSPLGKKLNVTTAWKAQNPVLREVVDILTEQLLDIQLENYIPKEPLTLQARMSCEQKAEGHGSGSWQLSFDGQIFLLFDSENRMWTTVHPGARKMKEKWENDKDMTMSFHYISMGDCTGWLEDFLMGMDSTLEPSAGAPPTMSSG

human ULBP2 = human ULBP2 (Homo sapiens (Human)., UniProt Q9BZM5); assay: as above
Sequence of human ULBP2 (Q9BZM5 26-217): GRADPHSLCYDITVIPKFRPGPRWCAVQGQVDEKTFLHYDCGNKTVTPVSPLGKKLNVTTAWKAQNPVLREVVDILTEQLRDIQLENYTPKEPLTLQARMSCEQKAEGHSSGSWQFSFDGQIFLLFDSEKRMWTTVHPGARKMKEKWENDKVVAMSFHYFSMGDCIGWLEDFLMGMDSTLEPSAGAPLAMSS

human ULBP3 = human ULBP3 (Homo sapiens (Human)., UniProt Q9BZM4); assay: as above
Sequence of human ULBP3 (Q9BZM4 30-217): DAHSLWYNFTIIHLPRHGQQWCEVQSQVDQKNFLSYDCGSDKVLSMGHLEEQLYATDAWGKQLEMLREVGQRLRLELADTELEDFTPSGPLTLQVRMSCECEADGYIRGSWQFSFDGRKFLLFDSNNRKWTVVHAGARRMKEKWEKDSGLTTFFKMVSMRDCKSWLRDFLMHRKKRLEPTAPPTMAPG

[1] = biological target: human ULBP6 (allelic isoform not stated) (Homo sapiens, ULBP6-02 allele (R26, …, UniProt Q5VY80)); assay: as above
human ULBP1 = human ULBP1 (Homo sapiens (Human)., UniProt Q9BZM6); assay: as above
Sequence of human ULBP1 (Q9BZM6 26-216): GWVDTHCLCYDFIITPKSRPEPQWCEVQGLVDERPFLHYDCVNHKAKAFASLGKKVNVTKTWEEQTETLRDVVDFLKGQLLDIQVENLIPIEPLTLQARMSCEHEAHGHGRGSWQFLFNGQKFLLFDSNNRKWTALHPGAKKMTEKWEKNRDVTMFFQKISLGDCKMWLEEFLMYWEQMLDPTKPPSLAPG

biotinylated ULBP5 = biotinylated ULBP5 (human, UniProt Q6H3X3, biotin); assay: ELISA; blocking assay: plates coated with Fc-tagged NKG2D; biotinylated ULBP5 (1.55 nmol/L) or ULBP6-02 (0.15 nmol/L) at its EC80 precomplexed with 23ME-01473 and transferred to the plates; IC50 from dose-response fit
Sequence of biotinylated ULBP5 (Q6H3X3 26-218): as the sequence (Q6H3X3 26-218) above

biotinylated ULBP6-02 = biotinylated ULBP6-02 (human, UniProt Q5VY80, biotin); assay: as above
[2] = biological target: T1, human ULBP6-02 extracellular domain (residues R26-G218) (human, UniProt Q5VY80 26-218, glycosylation of residues N68 and N82 (in the crystal structure)); assay: SPR; Biacore 8K or 8K+, 37°C; Fc-tagged human NKG2D (0.5 μg/mL) captured on Series S Sensor Protein A chip to about 25 RU; threefold serial dilutions of NKG2DLs injected at 30 μL/minute in HBS-P (0.01 mol/L HEPES pH 7.4, 0.15 mol/L NaCl, 0.005% P20); KD from steady-state fit
T1 construct: the construct of the SPR with NKG2D and of the cell assays is only called ULBP6-02 or recombinant ULBP6-02; also called sULBP6-02; sULBP6; source: recombinant, 23andMe, Inc; mammalian expression system
T1 sequence (looked up): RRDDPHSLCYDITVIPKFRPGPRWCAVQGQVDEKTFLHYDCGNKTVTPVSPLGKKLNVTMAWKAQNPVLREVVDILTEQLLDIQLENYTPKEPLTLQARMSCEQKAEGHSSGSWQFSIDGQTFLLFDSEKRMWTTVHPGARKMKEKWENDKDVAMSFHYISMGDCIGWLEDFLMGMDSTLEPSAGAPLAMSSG

Row | Binder | Kd (human ULBP5) [nM] | Kd (human ULBP2) [nM] | binding result (human ULBP3) | Kd [1] [nM] | binding result (human ULBP1) | IC50 (biotinylated ULBP5) [nM] | IC50 (biotinylated ULBP6-02) [nM] | binding result [2]
1 | B1 | 1.92 | 0.23 | no binding | 0.053 | no binding | 0.31 | 0.04 | 
2 | B2 |  |  |  |  |  |  |  | binds
